According to the nanobody polyreactivity screen of Harvey et al. (2022):

Assay: yeast display, Sf9 membrane polyspecificity reagent, FACS + sequencing; frameworks hold sequencing errors
Procedure, shortened: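 Galactose-induced (36–48 hours) yeast carrying a synthetic nanobody display library were exposed to 10% biotinylated, detergent-solubilized Sf9 membrane reagent at 4 °C for 1 hour. FACS followed streptavidin microbead enrichment, using low and high (top ~1%) gates for expression (anti-HA) and reagent binding (streptavidin). Colony PCR, MiSeq 2 × 250 sequencing and CDR-length filtering followed. Labels for polyreactivity reflect the gate of origin.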

Sequence	polyreactivity (PSR sort gate)
QVQLVESGGGLVQAGGSLRLSCAASGRTFGRNAMGWYRQAPGKERELVAAITWSGVTTYYADSVKGRFTISRDNAKNTVYLQMNSLKPEDTAVYYCATGTLYSDGAIYGYWGQGTQVTVSS	low polyreactivity
QVQLVESGGGLVQAGGSLRLSCAASGHTFYYYTMGWYRQAPGKERELVASIRNGGNTNYADSVKGRFTISRDTAKNTVYLQMHSLKPEDTAVYYCAAVFGWSYITAYDWGQGTQVTVSS	high polyreactivity
QVQLQESGGGLVQAGGSLRLSCAASGTISEDDWSGWYRQAPGKERELVAAIGLGSNTNYADSLKGRFPISRDNAKNTVYLQMNSLKPEDTAVYYSAVSVWQYSDNVYRGQGTQVTVSS	low polyreactivity
QVQLVESGGGLVQAGGSLRLSCSASGLTFSYYAMGLYRQAPGTERELVAAITSSGGNTYYADSVKGRFTISRDNAKNTVYLQMNSLKPEDTAVYYCNAVVGLGYNYWGQGNQVTVSS	high polyreactivity
QVQLVESGGGLVQAGGSLRLSCAASGFIFGHYTMGWYRQAPGKERELVAAITTGGRTYYADSVKGRFTISRDNAKNTVYLQMNSLKPEDTAVYYCAARGYIWGQGTQVTVSS	high polyreactivity
QVQLVESGGGLVQAGGSLRLSCAASGRTFYSNAMGWNRQAPGKERELVATITLSGGSTDYADSVKGRFTISRDNAKNTVYLQMNSLKPEDTAVYYCNADTDVHLIMGYWGQVTQVTVSS	low polyreactivity
QVQLVESGGGLVQAGGSLRLSCAASGRTFVPYVMGWYRQAPGKERELVAAISSSGGNTYYADSVKGRFTISPDNAKNTVYLQMNSLKPEDTAVYYCAARPRGYVYPGYYYWGQGSQVTVSS	high polyreactivity
QVQLVESRGVLVQAGGSLRLSCAASGRTFYYYAMGWYRQAPRKERELVAAINTRRTSTYYADSVKGRFTISRDNAKKTVYLQMNSLKPEDTAVYYCAVDPYGDSWEDWFRNYYYGYDYWGQGTQVTVSS	low polyreactivity
QVQLVESGGGLDQAGGSLRLSCAASGSIFAGYAMGWYRQAHGKERELVAAINWTGDSTYYADSVKGRFTISRDNAKNTVYLQMNRLKPEDTAVYYCAAIRRQKGLWDYYYWGQGTQVTVSS	low polyreactivity
QVQRVESGGGLVQARGSLRLSCAASGSTFPAYAMGWYRQARGKEREWVATITYTGGSTFYADSVKGRFTISRDNAKNTVYLQMNILKPEDTEVYYCAADRGDQEDEFDYWGQGTQVTVSS	low polyreactivity
QVQLVESGGGLVQAGRSLRLSCAASGSIFSRNAMGWYRQAPGKERELVAAITGSASSTYYADSVKGRFTISRDNAKNTVYLQMNSLKPEDTAVYYCNAARVYLSECGQGTQVTVSS	high polyreactivity
QVQLVESWGGLDQAGGSLRLSCAASGRNLYWNTMGWYRQPPGKETQLVASITQNVGSTYYADSVKGRFTISRDFAKNTVYLQMNSLKPEDTAVYDCAAKRLYWLRYGYWGQGTQDTVSS	low polyreactivity
QVQLVESGGGLVQAGGSLRLSCAASGYSFSYNAMGWYRQAPGKERELVAAMSRTGGSTNYADSVKGRFTISRDHAKKTVDLQMNSLKPEDTAVYDCAKRYRYPSWGEYGYWGLGTQVTVSS	high polyreactivity
QVQLVESGGGLVQAGGSLRLSCAASGSLFNRNVMGWYRQAPGKERELVAAMTRGGRTSYADSVKGRFTISRDNAKNTVYLQMNSLKPEDTAGYYCAARRGYWVDYWGQGTQVTVSS	high polyreactivity
QVQLVESGGGLVQAGGSLRLSCAASRYYAMGWYRQAPGKERELVPAITWSGGTTYYADSVKGRFTISRYNGKNTVYLQMNSLTPEDTAVYYCNADFVRFTRHKKYYYWGQGTQVTVSS	low polyreactivity
QVQLVESGGGLVQAGGSLRLSGADSGLTFRRNAMGWYRQAPGNERELVAAIRTGGSTYYADSVKGRFTISRDNAKNTVYLQMNSLKPEDTAVYYCAARSLIGSRLVPMNFWGQGTQVTVSS	high polyreactivity
QVQLVESGGGLVQAGGSLRLSCAASGITFNPNAMGLYRQAPGKERELVAVITYRGGSTYYADSVKGRFTISRDNAKNTVYLQMNSLKPEDTAVYYCAAQYIGWHLYWYDYWGQGTQVTVSS	low polyreactivity
QVQLVESGGGLVQAGGSLRLSCAASGRTFKKKVMGWYRHAPGKERELFAAISNGGSTNYADSVKGRFTISRDNSKNTDYLQMNSLKPEDTAVYDCAAYITWGGYHTPNWGYDYWGQGTQVTVSS	low polyreactivity
QVQLVESGGGLVQAGGSLRLSCAASGSTFWNYAMGWYRQAPGKERELVASIDSSDGRTYYADSVKGRFTSSRDNAKNTVFLQMTRQKPEDTAVDYCAKDAYAVELRPYSKLSSRADGYWGHGTQVTVSS	low polyreactivity
QVQLVESGGGLVQAGGSLRLSCAASGSIFGYNAMGWYRQAPGKERELVAAISNDGDNTYYADSVKGRFTISRDNAKNTVYLQMNSLKPEDTAVYYCATEYPLTYAYYYYDGGDYWGQGTQVTVSS	low polyreactivity
QVQLVESGGGLVQAGGSLRLSCAASGSTFYVYAMGWYRPAPGKERELVATISSSGAITYYADSVKGRFTISGDNAKNTVYLQMNSLKPEDTAVYYCARTGSLLSQVWYNYWGQGTQVTVSS	low polyreactivity
QVQLVESGGGLVQAGGSLRLSCAASGRTFIDYGMGWYRQAPGKERELVAAISSGGSTYYADSVKGRFTISRDNAKNTVYLQMNSLKPEDTAVYYCAAPGFKYDVYAGYVLNGGGDYWGQGTQVTVSS	low polyreactivity

Sequence	polyreactivity (PSR sort gate)
QVQLVESGGGLVQAGGSLRISCAASGITFPVYTMGWYRQAPGKERELVAAITSSGGSTYYADSVKGRFTISRDNAKNTVYLQMNSLKPEDTAVYYCAARDYGRHHTYGYWGQGTQVTVSS	high polyreactivity
QVQHVESGGGLVQEGGSLRLICSASGIIFSWYAMGWYRQAPGKERELVATISGGGGSTYYADSVKGRFTISRENAKNTVYLQMNRLKPEDTAVYYCAADYWNFNWRYKLYRPYDYWGQGTQVTVSS	high polyreactivity
QVQLVESGGGLVQAGGSLRLSCAASGIYGYNAMGWYRQAPGKERELVAAITSSGTSTYYADSVKGRFTISRDNAKNTVYLQMNSLKPEDTAVYYCAALHSGTWTGYGYWGQGTQVTVSS	low polyreactivity
QVQLVESGAGLVLPGGSLRLSCAASGNTTSTNAMGWYRQAPGKERVAALTWSTGSTYYEDSVKVRFTISRDNAKNTVYLQMNSLKQDETAVYYCAKQTYVSEYGLATAAWGFDYWGQGTQVTVSS	low polyreactivity
QVQLVESGGGIVQAGGSLRLSSAATGRIYAKNAMGWYRQAPGKERELVAAINHSVGSTYYADSVKARFTISRDNANNTVYLQMISLIQEDTAVYYCATLQGDSSSQYDYWGQGTQVTVSS	high polyreactivity
QVQLVESGAGLVQAGGSLRLSCAASGGTFESYAMGWYRQAPGTERELVAAISGRGGRTYYADSVKGRFTISRDNAKNTVYLQMNSLKPEDTAVYYCRYWYYRTYYYWGQGTQVTVSS	high polyreactivity
QVQLVESGGGLVQAGGGLRLSCAASGITFVDYDMGWYRQAPGKERELDAAITTGSSTYYADSVKGRFTISRDNAKNTVYLQMNSLKPEDTAVYYCARDFEYDYYQQWSYGYWGQGTQVTVSS	low polyreactivity
QVQLVESGGGLVQAGGSLRLSCAATGSIFYFYTMGWYRQAPGKERELVAAIDWSSGSTYYADSVKGRFTISRDNAKNTVYLQMNSLKPEDTAVYYCNARDYWTGRHDYWGQGTQVTVSS	low polyreactivity
QVQLVESGGGLVQAGGSLRLSCAASGGIIGWNAMGWYRQAPGKERELVATISWSGGSTYYADSVKGRFTISRDNAKNTVYLQMNSLKPEDTAVYYCAVARSAYWYRPAYDYWGQGTQVTVSS	high polyreactivity
QVQLVESGGGLVQAGGSLRLSCAASGRTFQWYAMGWYRQAPGKERELVAAITSGGNTYYADSVKGRFTISRDNAKNTVYLQMNSLKPEDTAVYYCFLFYSRSMGYWGQGTQVTVSS	high polyreactivity
QVQLVESGGGLVQAGGSLRLSCAASGRTFRGNAMGWYRQAPGKERELVAAITSSGGGTYYADSVKGRFTISRDNAKNTVYLQMYSLKPEDTAVYYCAAEYRDGYRFSYDYWGQGTQVTVSS	low polyreactivity
QVQLVESGGGLVQAGGSLRLSCAASGYTFSYYAMGWYRQAPGKERELVAAINYSGGRTYYADSVKGRFTISRDNAKHTVYLQMNSLKPEDSAVDYCAARGGFGMDYWGQGTQVTVSS	high polyreactivity
QVQLVESGGGLVQAGGSLRLSCAASGRIFNSNAMGWYRQAPGKERELVAAISSSGTRTYYADSVKGRFTISRDNAKNTVYLQMNSLKPEDTAVYYCNTYYKYAVVPSGGYWGQGTQVTVSS	high polyreactivity
QVQLVESGGGLVQAGGSLRLSCAASGRTLRGYAMGWYRKAPGKEREFVAAISSRGGSTYYADSVKGRFTISRDNAKNTVYLQMNSLKPEDTAVYYCAALRPVFATSHARDYWGQGTQVTVSS	high polyreactivity
QVQLVESGVCLVQAGGSLRLSSAASGRTLDQNTMGRYRQAPGKERELVASITYSGGITYYADSVKGRFTISSDNAKNTVYLQMNSLKPEATAVYYCAAQEHGTYDNILGEPLDYWGQGTQVTVSS	low polyreactivity
QVQLVESGGGLVQAGGSLRLSCAASGRIFTGNAMGWYRQAPGKERELVATITRRGGSTYYADSVKGRFTISRDHAKNTVYLQMNSLKPEDTAVYYCDANRLFSYDKYGYWGQGTQVTVSS	high polyreactivity
QVQLVESGGGLVQAGGSLRLSCAASGITLFGYTMGWYRQAPGKERELVAAIRRRGVSTYYADSVKGRFTISRDNAKNTVYLQMNSLKPEDTAVYYCAKSLKPYTDYDYWGQGTQVTVSS	high polyreactivity
QVQLVESGGGLVQAGGSLRLSCAASGSIFGGYGMGSYRQAPGKERELVAAITSGSSTYYADSVKGRFTISRDNAKNTVYLQMNSLKPEDTAVYYCAARPYPHSAYEGDYWGRGTQVTVSS	low polyreactivity
QVQLVESGGGLVQAGGSLRLSCAASGITFSGNAMGWYRQAPGKARELVATISQSGGRTYYADSVNGRFTISRDNAKHTVYLQMNSLKPEDTAVYYCARRRMRYTDRGYYYWGQGTQVTVSS	high polyreactivity
QVQLVESGGGLVQAGGSLRLSCAASGSTFVDNAMGWYRQAPGKERELVASITYRGGSTYYADSVKGRFTISRDNAKNTVYLQMNSLKPEDTAVYYCAKGHYFKYDYWGQGTQVTVSS	low polyreactivity
QVQVVESGGGLLQAGGSLRLSCAASGSTFGWYAMGWYRQAPWKERELVAANTGDSASTYYADSVKGRFTISRDNAKNTVYLQMNSLKPEDTAVYYCAASKFSDFGYQAVIGYGYWGQGTQVTVSS	low polyreactivity
